Measured values: article PMC2920228

Columns and labels:
[1] = target: AgsA (aggregation-suppressing protein, small heat shock protein), wild type, His-tagged (Salmonella enterica serovar Typhimurium); test: FRET or BRET; data not shown; subunit exchange of fluorescein- and rhodamine-labelled AgsA at 45°C, 40 min
[2] = target: AgsA (aggregation-suppressing protein, small heat shock protein), wild type, His-tagged (Salmonella enterica serovar Typhimurium); test: SEC; Superdex 200 XK 16/70, 20 mM Tris-HCl pH 8.0, 1 mM EDTA, 100 mM NaCl, run at 25°C; apparent mass from a calibration curve
[3] = target: ΔC11, C-terminal 11 AA truncated AgsA, His-tagged (Salmonella enterica serovar Typhimurium); test: SEC
[4] = target: ΔC11, C-terminal 11 AA truncated AgsA, His-tagged (Salmonella enterica serovar Typhimurium); test: SEC; Superdex 200 XK 16/70, 20 mM Tris-HCl pH 8.0, 1 mM EDTA, 100 mM NaCl, run at 37°C
[5] = target: ΔC11, C-terminal 11 AA truncated AgsA, His-tagged (Salmonella enterica serovar Typhimurium); test: SEC; Superdex 200 XK 16/70, 20 mM Tris-HCl pH 8.0, 1 mM EDTA, 100 mM NaCl, run at 42°C

| decrease in donor fluorescence after 40 min [1] [%] | stoichiometry N [2] [subunits] | Substance | stoichiometry N [3] [subunits] | stoichiometry N [4] [subunits] | stoichiometry N [5] [subunits] |
| --- | --- | --- | --- | --- | --- |
| 40 | 22 | AgsA (aggregation-suppressing protein, small heat shock protein), wild type, His-tagged (natural protein) | – | – | – |
| – | – | ΔC11, C-terminal 11 AA truncated AgsA, His-tagged (domain or fragment) | 3 | 2 | 2 |
